In paper PMC9400494:

Columns and labels:
Assay in all cases: fluorescence polarization
[1] = system: nsp12 RdRP (SARS-CoV-2 (Wuhan-1 strain))
[2] = system: nsp8 (SARS-CoV-2 (Wuhan-1 strain))
[3] = system: nsp7 (SARS-CoV-2 (Wuhan-1 strain))
[4] = system: nsp8L7 (nsp8-GSGSGS-nsp7 fusion) (SARS-CoV-2 (Wuhan-1 strain))

Substance: FP primer-template RNA hairpin
- Kd [1]: 0.2 µM
- Kd [2]: 0.2 µM
- Kd [3]: 7 µM
- Kd [4]: 0.2 µM
